Test [1] relates to versican GFP transgenic mouse pelage DP cells. As to the kind of experiment: Flow cytometric analysis of GFP expression in DP cells co-cultured with feeder cells. It counts as cell-based. To be noted: for GFP expression (GFP fluorescence) of DP cells: freshly isolated DP cells co-cultured with feeder cells expressing the protein, FACS analysis. The text has this: (§1) Fresh mouse pelage DP cells were obtained from versican GFP transgenic newborn skin by high-speed cell sorting (MoFLO) as described previously in Kishimoto et al., supra. Chick embryo fibroblasts (CEFs) were infected with RCASBP(A) retroviral vectors encoding chick Shh, as described in Riddle et al. (1993) Cell 75:1401-1416, Wnt3a, as described in Kengaku et al. (1998) Science 280:1274-1277, Wnt4, Wnt5a (Noramly and Morgan, in prep), or Wnt7a, as described in Riddle et al. (1995) Cell 83:631-640, or vector alone as described, as described in Morgan et al. in Methods in Cell Biology (ed. Bonner-Fraser) pp. 185-218 (Academic Press, San Diego, 1996). GFP positive mouse DP cells were added onto 30-50% confluent feeder cells to achieve a ratio of 1:3 (mouse:chick). For the flow cytometric analysis, cells were co-cultured in 24 well dishes for 48-96 hrs. For the grafting experiment co-cultured cells were passaged 2-3 times in 10 cm dishes to generate the 2×10^6 cells required for each graft.
Cells were trypsinized and resuspended in 0.5 ml PBS with 1% BSA. Flow cytometric analysis was performed by FACScan (Becton Dickinson). DP cells were labeled with mouse MHC class II monoclonal antibody and incubated with secondary IgG conjugated to PE. The PE negative avian cells fell below the lower gate in FIG. 3 and were excluded from the analysis of GFP expression.

Test [2] has the same test system. The test can be described thus: RT-PCR analysis of gene expression in DP cells co-cultured with feeder cells. As to conditions: freshly isolated DP cells co-cultured with feeder layers. It is filed as cell-based. The method, then:
Total RNA was isolated and RT PCR performed as described in Kishimoto et al. (1999) Proc. Natl Acad. Sci. USA 96:7336-7341, using an annealing temperature of 58° C. The primers employed are listed below. With the exception of Wnts 4, 5 and 7, the primers were designed to distinguish between mouse and chicken orthologues and the lack of cross reaction to chick sequences was confirmed on cDNA from feeder cells alone.
as §1, with “For the grafting experiment co-cultured cells were passaged 2-3 times in 10 cm dishes to generate the 2×10^6 cells required for each graft.” left out

The test system of test [3] is hair inductive activity of DP cells. As to the kind of experiment: Skin reconstitution assay: co-cultured DP cells plus keratinocytes grafted on nude mouse hosts. It is filed as in vivo.
Description: as §1
The reconstitution assay was performed as described in Kishimoto et al., supra. Primary keratinocytes were prepared from 2 newborn pups per graft and combined with 2×10^6 DP cells in the graft chamber. Hair growth was monitored two weeks after grafting and weekly thereafter.

The mark [4] stands for this setting: DP cells maintained in culture until GFP expression and hair inductive activity were lost.

B1: Wnt 4: Wnt protein supplied by chick embryo fibroblast feeder cells infected with RCASBP(A) retroviral vector encoding Wnt4 (protein, UniProt P49337 23-351, looked up)
Protein Wnt-4: SNWLYLAKLSSVGSISEEETCEKLKGLIQRQVQMCKRNLEVMDSVRRGAQLAIEECQYQFRNRRWNCSTLDTLPVFGKVVTQGTREAAFVYAISSAGVAFAVTRACSSGELDKCGCDRTVQGGSPQGFQWSGCSDNIAYGVAFSQSFVDVRERSKGASSNRALMNLHNNEAGRKAILNNMRVECKCHGVSGSCEFKTCWKAMPPFRKVGNVLKEKFDGATEVEQSEIGSTKVLVPKNSQFKPHTDEDLVYLDSSPDFCDHDLKNGVLGTSGRQCNKTSKAIDGCELMCCGRGFHTDEVEVVERCSCKFHWCCSVKCKPCHRVVEIHTCR
In the case of B1, the “GFP expression (GFP fluorescence) of DP cells” value in test [1] was “some maintenance of GFP expression but were less potent than either Wnt3a or 7a”.

B2: Wnt3a: Wnt protein supplied by chick embryo fibroblast feeder cells infected with RCASBP(A) retroviral vector encoding Wnt3a (protein, UniProt Q2LMP1 19-352, looked up)
Protein Wnt-3a: SYPIWWSLAIGHQYSSLGTQPILCGSIPGLVPKQLRFCRNYVEIMPSVAEGVKIGIQECQHQFRGRRWNCTTVNDSLAIFGPVLDKATRESAFVHAIASAGVAFAVTRSCAEGSATICGCDTRHKGSPGEGWKWGGCSEDVEFGSMVSREFADARENRPDARSAMNRHNNEAGRTSIIELMHLKCKCHGLSGSCEVKTCWWSQPDFRVIGDYLKDKYDSASEMVVEKHRESRGWVETLRPKYNFFKAPTEKDLVYYENSPNFCEPNPETGSFGTRDRICNVTSHGIDGCDLLCCGRGHNTRTEKRKEKCHCIFHWCCYVRCQECIRVYDVHTCK
B2: the “reactivation of GFP expression in DP cells that lost it in culture” value in test [1] (setting [4]) is recorded as “cannot reactivate”. For the same molecule, the “GFP expression (GFP fluorescence) of DP cells” value in test [1] was “maintenance of GFP fluorescence in the majority of the DP cells”. Besides, the “GFP RNA levels in DP cells” value in test [2] is listed as “maintained”. For the same molecule, the “reactivation of hair inductive activity in DP cells that lost it in culture” value in test [3] (setting [4]) was “cannot reactivate”. For the same molecule, the “hair growth / hair inductive activity of co-cultured DP cells” value in test [3] (reconstituted skin on nude mouse host, compared to cells co-cultured with control feeders or Shh expression cells) is reported as “dramatic increase in hair growth”. Further, the “hair in graft of treated DP cells” value in test [3] (three weeks after grafting to nude mouse, DP cells co-cultured with feeder cells, combined with keratinocytes) was “formed a dense patch of hair in the graft”.

For the origin of these results see US7985587B2, “Methods of culturing dermal papilla cells” (The General Hospital Corporation, priority 2000, dated 2011).
